For assay [1], the target named is T1, BD-hSTING-C (carboxyl region of STING, amino acids 173-379, fused to the binding domain of yeast GAL4) (yeast; human, UniProt P04386 1-147).
T1 construct: Yeast two-hybrid bait; also called pGBK-T7-hSTING-C; pGBKT7-STING C-terminal
In words: yeast two-hybrid, high stringency plates (-Trp, -Leu, -Ade, -His).

Assay [2] deals with T1, BD-hSTING-C (carboxyl region of STING, …). In words: yeast two-hybrid screen.

B1: control vector (AD) (other, yeast, UniProt P04386 768-881, looked up)
chain: ANFNQSGNIADSSLSFTFTNSSNGPNLITTQTNSQALSQPIASSNVHDNFMNNEITASKIDDGNNSKPLSPGWTDQTAYNAFGITTGMFNTTTMDDVYNYLFDDEDTPPNPKKE
notes: Yeast two-hybrid negative control
For B1, the binding result in assay [1] is “no binding”.

B2: Full length DAD1 (defender against apoptotic cell death) fused to the GAL4 activation domain (other, human, UniProt P61803 1-113, looked up, not shown: large carriers)
chain: MSASVVSVISRFLEEYLSSTPQRLKLLDAYLLYILLTGALQFGYCLLVGTFPFNSFLSGFISCVGSFILAVCLRIQINPQNKADFQGISPERAFADFLFASTILHLVVMNFVG
notes: Yeast two-hybrid prey; also called DAD I
For the molecule B2, the binding result in assay [2] is “binds”.
